Substitutions are numbered along the chain they refer to. Where “and” joins values, the source holds several entries; their conditions need not be identical. Equal entries are not always repeated. Where two headings read alike, the source gives them in different places.
B1: Fab of well C2 (Omniclonal AL0003Z1 plate) (Fab, V domains shown)
VH: DVQLQESGPDLVKPSQSLSLTCTVTGFSITSGYGWHWIRQFPGNKLEWMGYISFNGDSNYNPSLKSRISITRDTSKNQFFLQLNSVTSEDTATYYCASSYDGLFAYWGQGPLVTVSA
VL: DIQMTQSPSSMYASLGERVTLTCKASQDIHNYLNWFQQKPGKSPKTLIHRANRLVAGVPSRFSGSGSGQDYSLTISSLEYEDLGIYYCLQYDAFPLTFGAGTKLELK
B2: Fab of well D1 (Omniclonal AL0003Z1 plate) (Fab, V domains shown)
VH: B1 VH with D1E, N44D, S58Y, N84S, S88T, P111T
VL: B1 VL with Q3K, L21I, N31T, K45E, H49Y, A56D, L83M, A93E
B3: 3C4 mouse anti-KAAG1 Fab (Fab, V domains shown)
VH: B1 VH with D1E, S53N, F54Y, N55D, D57H, S58N, N59D, R72Q, S88T, P111T
VL: DIVMSQSPSSMYASLGERVTITCKASQDIHNFLNWFQQKPGKSPKTLIFRANRLVDGVPSRFSGSGSGQDYSLTISSLEFEDLGIYSCLQYDEIPLTFGAGTKLELR
notes: Recombinant mouse Fab prepared from E. coli; also called 3C4 Fab; well C4
B4: 3C4 mouse-human chimeric IgG1 anti-KAAG1 monoclonal antibody (antibody, V domains shown)
VH: B1 VH with D1E, S53N, F54Y, N55D, D57H, S58N, N59D, R72Q, S88T, P111T
VL: DIVMSQSPSSMYASLGERVTITCKASQDIHNFLNWFQQKPGKSPKTLIFRANRLVDGVPSRFSGSGSGQDYSLTISSLEFEDLGIYSCLQYDEIPLTFGAGTKLELRA
notes: Mouse variable regions on human kappa and human IgG1 constant regions, expressed in 293E cells; also called chimeric 3C4
B5: Fab of well E10 (Omniclonal AL0003Z1 plate) (Fab, V domains shown)
VH: EVQLQQSGPELVKPGASVKISCKASGDTFTDYYMNWVKQSHGKSLEWIGDINPNYGGITYNQKFKGKATLTVDTSSSTAYMELRGLTSEDSAVYYCQAYYRNSDYWGQGTTLTVSS
VL: DIVMTQAAPSVPVTPGESVSISCRSSKSLLHSNGNTYLYWFLQRPGQSPQLLIYRMSNLASGVPDRFSGSGSGTAFTLRISRVEAEDVGVYYCMQHLEYPYTFGGGTKLEIK
B6: A9 (Fab, V domains shown)
VH: QVQVQQPGAELVRPGASVTLSCKASGYIFTDYEVHWVRQRPVHGLEWIGVIDPETGDTAYNQKFKGKATLTADKSSSTAYMELSSLTAEDSAVYYCIGYADYWGQGTTLTVSS
VL: DIVMTQSPSSLAMSLGQKVTMSCKSSQSLLNSNNQLNYLAWYQQKPGQSPKLLVYFASTRKSGVPDRFIGSGSGTDFTLTITSVQAEDLADYFCQQHFNTPLTFGAGTKLELK
notes: also called Fab of well A9
B7: G12 (Fab, V domains shown)
VH: EVQLQQSVAELVRPGASVTVSCKASGYIFTDYEIHWVKQTPAHGLEWIGVIDPETGNTAFNQKFKGKATLTADISSSTAYMELSSLTSEDSAVYYCMGYSDYWGQGTTLTVSS
VL: DIVMTQSPKFMSTSVGDRVSITCKASQDVGTAVAWYQQKPGQSPELLIYWTSTRHTGVPDRFSGSGSGTDFTLTISSVQAEDLADYFCQQHYSIPLTFGAGTKLELR
notes: also called Fab of well G12
B8: C3 (Fab, V domains shown)
VH: EVQLQQSVAEVVRPGASVTLSCKASGYTFTDYEIHWVKQTPVHGLEWIGVIDPETGVTAYNQRFRDKATLTTDKSSSTAYMELSSLTSEDSAVYFCMGYSDYWGQGTTLTVSS
VL: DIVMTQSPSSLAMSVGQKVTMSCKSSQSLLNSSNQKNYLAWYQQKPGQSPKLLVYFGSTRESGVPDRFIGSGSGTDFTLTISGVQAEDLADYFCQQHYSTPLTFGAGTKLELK
notes: also called Fab of well C3
B9: 3D3 mouse-human chimeric IgG1 anti-KAAG1 monoclonal antibody (antibody, V domains shown)
VH: B7 VH with V20L, A42V
VL: DIVMTQSPSSLAVSIGQKVTMNCKSSQSLLNSNFQKNFLAWYQQKPGQSPKLLIYFASTRESSIPDRFIGSGSGTDFTLTISSVQAEDLADYFCQQHYSTPLTFGAGTKLELKA
notes: Mouse variable regions on human kappa and human IgG1 constant regions, expressed in 293E cells; also called chimeric 3D3; 3D3 chimeric IgG1
B10: 3D3 hybrid antibody: humanized light chain expressed with the chimeric heavy chain (antibody, V domains shown)
VH: B7 VH with V20L, A42V
VL: DIVMTQSPDSLAVSLGERATINCKSSQSLLNSNFQKNFLAWYQQKPGQPPKLLIYFASTRESSVPDRFSGSGSGTDFTLTISSLQAEDVAVYYCQQHYSTPLTFGQGTKLEIKR
notes: also called HC
B11: 3D3 mouse anti-KAAG1 Fab (Fab, V domains shown)
VH: B7 VH with V20L, A42V
VL: DIVMTQSPSSLAVSIGQKVTMNCKSSQSLLNSNFQKNFLAWYQQKPGQSPKLLIYFASTRESSIPDRFIGSGSGTDFTLTISSVQAEDLADYFCQQHYSTPLTFGAGTKLELK
notes: Recombinant mouse Fab prepared from E. coli, from Omniclonal AL0003Z1; also called 3D3 Fab
B12: G8 (Fab, V domains shown)
VH: QVQLKQSGAELVRPGASVTLSCKASGYTFTDYEVHWVKQTPVHGLEWIGVIDPATGDTAYNQKFKGKATLTADKSSSTAYMEVSSLTSEDSAVYYCMGYSDYWGQGTTLTVSS
VL: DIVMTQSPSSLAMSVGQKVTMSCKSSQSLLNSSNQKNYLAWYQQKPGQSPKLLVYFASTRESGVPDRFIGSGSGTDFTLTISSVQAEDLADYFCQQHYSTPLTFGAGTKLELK
notes: also called Fab of well G8
B13: 3G10 mouse anti-KAAG1 Fab (Fab, V domains shown)
VH: EIQLQQSGPELVKPGASVKISCKASGYTFTDNYMNWVKQSHGKSLEWIGDINPYYGTTTYNQKFKGKATLTVDKSSRTAYMELRGLTSEDSAVYYCARDDWFDYWGQGTLVTVSA
VL: DVLMTQTPRSLSVSLGDQASISCRSSQSLLHSNGNTYLEWYLQKPGQPPKVLIYKVSNRFSGVPDRFSGSGSGTDFTLKISGVEAEDLGVYYCFQGSHVPLTFGAGTKLELK
notes: Recombinant mouse Fab prepared from E. coli; also called 3G10 Fab; well G10

Assays:
[1] = biological target: T1, Fc-fused truncated mutant of KAAG1 spanning amino acids 1-35 (human); assay: ELISA
T1 construct: also called truncated mutant of KAAG1 1-35; first 35 amino acids of KAAG1; not shown: human Fc domain encoded by expression plasmid pYD5; vector-encoded residues between the Fc and the BamHI cloning site of pYD5
T1 chain: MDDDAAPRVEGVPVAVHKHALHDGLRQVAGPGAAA

[2] = biological target: T2, recombinant Fc-KAAG1 fusion protein (full-length KAAG1) (human, UniProt Q9UBP8 1-84, biotinylated with NHS-biotin (sites not given)); assay: ELISA
T2 construct: also called recombinant human KAAG1; not shown: human Fc domain encoded by expression plasmid pYD5; vector-encoded residues between the Fc and the BamHI cloning site of pYD5
T2 sequence: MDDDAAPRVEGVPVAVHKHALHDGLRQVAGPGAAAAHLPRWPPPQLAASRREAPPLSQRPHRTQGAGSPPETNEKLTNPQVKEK

[3] = biological target: T2, recombinant Fc-KAAG1 fusion protein …; assay: ELISA; remark: listed apart in the source
Experimental: (§1) The 96-well master plate of monoclonal preparations contained different concentrations of purified anti-KAAG1 Fabs in each well. A second stock master plate was prepared by diluting the Fabs to a final concentration of 10 μg/ml from which all subsequent dilutions were performed for ELISA measurements. To carry out the binding of Fc-KAAG1 to the monoclonal preparations, the Fc-KAAG1 was biotinylated with NHS-biotin (Pierce, Rockford, Ill.) and 10 ng/well was coated in a streptavidin 96-well plate. One nanogram of each Fab monoclonal preparation was added to each well and incubated at room temperature for 30 minutes. Bound antibody was detected with HRP-conjugated mouse anti-kappa light chain antibody in the presence of TMB liquid substrate (Sigma-Aldrich Canada Ltd., Oakville, ON) and readings were conducted at 450 nm in microtiter plate reader.

[4] = biological target: T3, biotinylated Fc domain (UniProt P01857-1 104-330 = IgG part, limits assumed, biotinylated); assay: ELISA, biotinylated Fc domain on streptavidin plate, Fab detected with HRP anti-kappa
T3 construct: domain: Fc domain; Control antigen of the Fab ELISA; also called Fc domain (control)
Experimental: as §1

[5] = biological target: T4, KAAG1 (Kidney associated antigen 1), endogenous, on cancer cells and in tumour tissue (human, UniProt Q9UBP8 1-84); assay: cell-based ELISA on fixed, non-permeabilised OV-90 cells
T4 construct: also called KAAG1 antigen
T4 sequence: T2 sequence
Experimental: (§2) KAAG1 is expressed on the surface of ovarian cancer cells. […] Following extensive washing of the cells, bound antibody was detected with HRP-conjugated anti-human IgG as a secondary antibody in a modified cell-based ELISA (see FIG. 16A). […] Additionally, the 3D3 antibody produced the strongest signal implying that the epitope targeted by this antibody was the most accessible in this assay. […] A second approach used was flow cytometry. In this case, a mouse 3D3 anti-KAAG1 antibody was incubated with SKOV-3 ovarian cancer cells at saturating conditions and following extensive washing, the bound 3D3 anti-KAAG1 antibody was detected with anti-mouse IgG conjugated to FITC in a flow cytometer.

[6] = biological target: T5, monomeric recombinant KAAG1 (Homo sapiens (Human), UniProt Q9UBP8 1-84, limits assumed); assay: SPR (Biacore): antibody captured on immobilised anti-human Fc, monomeric recombinant KAAG1 injected, global 1:1 fit; average KD; chimeric light + chimeric heavy chain, 'CC' in FIG. 18B
T5 construct: Analyte of the Biacore experiment
T5 sequence: T2 sequence
Experimental: (§3) More precise measurements were conducted using Surface Plasmon Resonance (SPR) in a Biacore instrument. Kinetic analysis was used to compare the affinity of the chimeric 3D3 with the h3D3 as well as with hybrid antibodies encompassing different permutations of the light and heavy chains (see FIG. 18B). Briefly, anti-human Fc was immobilized on the Biacore sensor chip and chimeric or h3D3 was captured on the chip. Different concentrations of monomeric recombinant KAAG1 were injected and the data were globally fitted to a simple 1:1 model to determine the kinetic parameters of the interaction.

[7] = biological target: T5, monomeric recombinant KAAG1; assay: SPR (Biacore): antibody captured on immobilised anti-human Fc, monomeric recombinant KAAG1 injected, global 1:1 fit; average KD; chimeric 3D3 tabulated as 'm3D3' in FIG. 18B
Experimental: as §3

[8] = biological target: T2, recombinant Fc-KAAG1 fusion protein …; assay: ELISA on recombinant Fc-KAAG1
Experimental: as §1
Since an antibody harboring effector functions was required, the h3D3 was assembled as a human IgG₁. ELISA-based assays were performed to directly compare the ability of the h3D3 […]. The methods used to perform these tests were as described in Example 3 using recombinant Fc-KAAG1.

[9] = biological target: T4, KAAG1 (Kidney associated antigen 1), …; assay: cell-based ELISA on fixed, non-permeabilised TOV-21G cells
Experimental: as §2

[10] = biological target: T5, monomeric recombinant KAAG1; assay: SPR (Biacore), antibody captured by anti-human Fc, 1:1 fit
Experimental: as §3

[11] = biological target: T5, monomeric recombinant KAAG1; assay: SPR (Biacore): antibody captured on immobilised anti-human Fc, monomeric recombinant KAAG1 injected, global 1:1 fit; average KD; humanized light + chimeric heavy chain, 'HC'
Experimental: as §3

[12] = biological target: T2, recombinant Fc-KAAG1 fusion protein …; assay: ELISA on Fc-KAAG1
Experimental: as §1
Expression of human IgG1s in 293E cells—The expression vectors prepared above that encoded the light and heavy chain immunoglobulins were expressed in 293E cells using the transient transfection system (Durocher et al., 2002). The methods used for co-transfecting the light and heavy chain expression vectors were described in Example 3. […] The ability of the chimeric anti-KAAG1 monoclonal antibodies to bind to recombinant Fc-KAAG1 was measured in the ELISA and compared with the original mouse Fabs. The method was described in Example 3. […]

Binder | OD450 [1] | OD450 [2] | OD450 [3] | binding result [4] | other results
B1 | 1.97 | 0.32 | 0.32 | no binding | –
B2 | 1.21 | 0.15 | 0.15 | no binding | –
B3 | 1.93 | 0.25 | 0.25 | no binding | –
B4 | – | – | – | – | EC50 (read off the curve) [5]: ~0.6 µg/mL
B5 | – | 0.02 | 0.02 | – | –
B6 | 0.1 | 1.53 | 1.53 | – | –
B7 | – | 1.38 | 1.38 | – | –
B8 | – | 1.04 | 1.04 | – | –
B9 | – | – | – | – | EC50 (read off the curve) [5]: ~0.9 µg/mL; Kd [6]: 0.271 nM; Kd [7]: 0.235 nM; EC50 (read off the curve) [8]: ~0.4 µg/mL; EC50 (read off the curve) [9]: ~0.6 µg/mL; Ka [10]: 4.5e+09 M⁻¹ and 2.71e+09 M⁻¹; Kd [10]: 0.368 nM; koff [10]: 0.00065 s⁻¹ and 0.00073 s⁻¹; kon [10]: 2.91e+06 M⁻¹ s⁻¹ and 1.98e+06 M⁻¹ s⁻¹
B10 | – | – | – | – | Kd [11]: 0.309 nM; Ka [10]: 3.24e+09 M⁻¹; koff [10]: 0.00073 s⁻¹; kon [10]: 2.36e+06 M⁻¹ s⁻¹
B11 | – | 1.21 | 1.21 | no binding | EC50 (read off the curve) [12]: ~0.5 µg/mL
B12 | – | 1.72 | 1.72 | – | –
B13 | – | 2.78 | 2.78 | no binding | –

Reference: US20110223107A1 (ALETHIA BIOTHERAPEUTICS, published 2011)
